Laboratory results reported in paper PMC4167974.

Target: fluorescein-labeled BalhA1 leader peptide (Bacillus sp. Al Hakam)
Test: fluorescence polarisation

For MBP-BalhC (natural protein), which Kd is on record?
The Kd was 11 µM.
